Entries after “also recorded” stand apart in the source; their conditions may differ. Ends that are not written are not given here.
Columns and labels:
cMet (HT29 cells) [1] = target: T1, cMet (HT29 cells) (Homo sapiens, UniProt P08581); experiment: Competition for peptide binding with unlabeled peptides; set-up: endogenous in cells; host or cells: HT29 (cMet+), SW480 (cMet-), HT29 with siRNA knockdown; conditions: unlabeled peptide 0-400 μM, 5 μM QQT*-Cy5.5
Protocol: (§1) We used a competition assay between labeled QQT*-Cy5.5 and either unlabeled QQT* or recombinant human hepatocyte growth factor (HGF, […], R&D) to validate the specific binding of QQT**-Cy5.5 to HT29 cells. Approximately 10^3 HT29 cells were grown to about 70% confluence on coverslips in triplicate. Unlabeled QQT* and either TLQ* peptide at 0, 25, 50, 100, 200 and 400 μM, or HGF at 0, 5, 10, 25, 50 or 100 ng/mL, were first added and incubated with the cells for 30 min (i.e., minutes) at 4° C. The cells were washed with 1×PBS three times and then incubated with 5 μM QQT*-Cy5.5 for another 30 min at 4° C. The cells were washed three times with 1×PBS and then fixed with 4% PFA for 10 min. The cells were washed with 1×PBS and mounted with ProLong Gold reagent containing DAPI (Invitrogen). Confocal fluorescence images were collected at each concentration using a 63× objective (Leica SP5 Inverted 2-Photon FLIM Confocal), and intensities from five cells in three independent images were quantified using custom Matlab (Mathworks, Natick, MA) software.

mouse cMet-ECD = target: T2, mouse cMet-ECD (Mus musculus, UniProt P16056); experiment: Pull-down assay; type: binding; conditions: peptide immobilized on EHS beads
T2 construct: incubated with purified mouse cMet-ECD protein (50622-M08H, Sino Biological); purchased Sino Biological 50622-M08H
Protocol: Interactions between peptide and mouse cMet were evaluated using a pull-down assay (Paul et al., Methods 54:387-395 (2011)). Peptides were immobilized on EHS active beads (17-0906-01, GE), and incubated with purified mouse cMet-ECD protein (50622-M08H, Sino Biological). After washing, bound proteins were detected by Western blot (FIG. 18).

[2] = tested on: phosphorylation of cMet, AKT and ERK1/2; experiment: Effect of peptide on cell signaling (Western blot); type: cell-based, human; conditions: HT29 cells; 10, 30, 120 min; HGF 25 ng/mL; peptide 5 or 100 μM
Protocol: HT29 cells were treated with serum-free medium overnight for starvation before incubation with hHGF (hHGF, 294-HG-005, R&D) or peptides. Recombinant Human HGF Protein was added to HT29 cells at concentrations of 25 ng/ml for 10, 30, or 120 min in separate wells. QQT*-Cy5.5 and TLQ*-Cy5.5 were added at concentrations of 5 or 100 μM for 10, 30, and 120 min. Peptides were added at concentrations of 5 and 100 μM for 10, 30, or 120 min. Cells were then washed with 1×PBS and lysed with Pierce RIPA buffer containing Halt Phosphatase Inhibitor Cocktail (Thermo Fisher) and Halt Protease Inhibitor Cocktail (Thermo Fisher). Protein contents were quantified by Bicinchoninic Acid Assay (BCA). Anti-cMet antibody (Cell Signaling, #8198), phospho-cMet (Tyr1234/1235) antibody (Cell Signaling, #3077), anti-AKT antibody (Cell Signaling, #4691), anti-phospho-AKT antibody (Cell Signaling, #9271), anti-ERK1/2 antibody (Abcam, #ab17942), anti-phospho-ERK1/2 antibody (Abcam, #ab50011), and anti-tubulin antibody (Invitrogen, #32-2600) were used per manufacturer's instructions.

cMet (HT29 cells) [3] = target: T1, cMet (HT29 cells); experiment: Competition for peptide binding with HGF; set-up: endogenous in cells; host or cells: HT29 (cMet+), SW480 (cMet-), HT29 with siRNA knockdown; conditions: HGF 0 to 100 ng/mL; confocal microscopy
Protocol: as §1

[4] = tested on: flat and polyploid colonic adenomas; experiment: In vivo endoscopic imaging in CPC;Apc mice; conditions: CPC;Apc mouse; topical / intra-rectal, 100 μM, 5 min incubation
Protocol: A CPC;Apc mouse model that can develop spontaneous adenomas in distal colon epithelium^44 was also used. Under the control of the Cdx2 promoter (CDX2P-9.5NLS-Cre), Cre recombinase can sporadically delete the adenomatous polyposis coli (APC) allele, resulting in polyploid colonic adenomas or flat lesions. We collected images from mice (n=8) that ranged in age from 7 to 10 months.
In vivo imaging was performed with approval of the University of Michigan Committee on the Use and Care of Animals. CPC;Apc mice were used for in vivo imaging. […]
(§2) A rigid small animal endoscope (Karl Sorz Veterinary Endoscopy) was inserted into the rectum (Liu et al., Gut 62:395-403 (2013)) and used to image the distal colon^45. […] The distance between the endoscope tip and the anus, and the clockwise location of polyps, were recorded. […] A ratio of the fluorescence and reflectance images was determined to correct for differences in distance and geometry over the image field-of-view (FOV) (Joshi et al., Endoscopy 48:A1-A13 (2016)). […]
The mean fluorescence intensity was used to calculate the target-to-background (T/B) ratios. Images were processed and analyzed using custom software in Matlab (Mathworks) (Joshi et al., Gastroenterology 152:1002-1013 e1009 (2017)). Matlab software was used to quantify the fluorescence intensity. […]

[5] = tested on: human colon organoids (adenoma, SSA, normal); experiment: In vivo endoscopic imaging of patient-derived colon organoids implanted in NOD/SCID mice; conditions: NOD/SCID mouse; topical administration
Protocol: Acute colitis was induced in 8-week-old NOD.Cg-Prkdcscid Il2rgtm1Wjl/SzJ mice (005557, The Jackson Laboratory)^40,41 by feeding them with 3.0% DSS (molecular weight 40,000; Cat #AAJ6360622; Alfa Aesar) dissolved in drinking water for 5 days (d). At 6 d, the donor organoids were released from the type I collagen gel, dissociated by EDTA, and washed with BSA-containing PBS as with the passage procedure. Approximately 2.5-5E5 cell aggregates in 200 μL were transplanted per mouse as previously described^42,43. Organoids were instilled into colonic lumen as a suspension by using a syringe and a thin flexible catheter 4 cm in length and 2 mm in diameter. The anal verge was glued for 6 hours after infusion to prevent luminal contents from being excreted immediately, then glue were removed by Ethanol. Mice were maintained as usual after the transplantation. The mice were housed in pathogen-free conditions and supplied water ad libitum under controlled conditions of humidity (50±10%), light (12/12 hour light/dark cycle) and temperature (25° C.). […]
as §2
The mean fluorescence intensity was used to calculate the target-to-background (T/B) ratios. Images were processed and analyzed using custom software in Matlab (Mathworks) (Joshi et al., Gastroenterology 152:1002-1013 e1009 (2017)). Matlab software was used to quantify the fluorescence intensity. The fluorescence intensity of regions of interest (ROI) was corrected by taking the ratio of fluorescence to reflectance, the fluorescence of interested region was taken as target (T), and adjacent mouse normal colon region with equal area was picked for use as background (B)^46. […]

cMet [6] = target: T3, cMet (Homo sapiens, UniProt P08581); experiment: Confocal microscopy of binding to S114 (cMet+) versus NIH3T3 (cMet−) cells; type: cell-based, mouse; set-up: expressed in transfected cells; host or cells: S114 (NIH 3T3 mouse fibroblasts transformed with human HGF/SF and Met); NIH3T3 as cMet- control; conditions: 5 μM peptide
From the text: Human CRC cell lines HT29, SW480, CCD841 and mouse embryonic fibroblast cell line NIH 3T3 were obtained from the American Type Culture Collection (ATCC, Manassas, VA). The S114 cell line comprised NIH 3T3 cells transformed with human HGF/SF and Met and expressed cMet. We used McCoy's 5A Medium (Gibco) for culturing HT29 cells and Dulbecco's Modified Eagle Medium (Gibco) was used to culture SW480, NIH3T3 and S114 cells. Eagle's Minimum Essential Medium (Lonza) was used for CCD841 cells. All cells were cultured at 37° C. in 5% CO2, and supplemented with 10% fetal bovine serum (FBS). The cells were passaged using 0.25% trypsin containing EDTA (Mediatech, Manassas, VA). Cell numbers were quantitated on a hemocytometer. Peptide synthesis reagents were obtained from Anaspec (Anaspec, Fremont, CA) or AAPPTEC (AAPPTEC, Louisville, KY), were of the highest grade available (>99% purity), and were used without further purification. […]
HT29, SW480, S114 and NIH3T3 cells were inoculated in 12-well cell culture plates with circle glass coverslips to about 80% confluence. […] Confocal fluorescence images were collected using a 63× oil-immersion objective (Leica SP5 Inverted 2-Photon FLIM Confocal). Fluorescence intensities from five cells in two independent images were quantified using custom Matlab (Mathworks) software.

cMet [7] = target: T3, cMet; experiment: siRNA knockdown of cMet in HT29 cells, binding by confocal microscopy; type: cell-based
Protocol: (§3) HT29, SW480, S114 and NIH3T3 cells were inoculated in 12-well cell culture plates with circle glass coverslips to about 80% confluence. The cells were blocked with 1×PBS plus 2% BSA for 1 hour at 4° C., then were incubated with 5 μM peptides for 10 min at RT in the dark, washed thrice, and fixed with 4% PFA for 5 min, washed with 1×PBS, then mounted on glass slides with ProLong Gold reagent containing DAPI (Invitrogen, Waltham, MA). As positive control, after blocking with 2% BSA for 1 hour at 4° C., A 1:3000 dilution of primary monoclonal rabbit anti-cMet antibody (Cell Signaling Technology, #8198) was incubated with cells overnight at 4° C. Afterward, the cells were washed thrice with 1×PBS and further incubated with a 1:500 dilution of AF488-labeled secondary goat ant-rabbit immunoglobulin G antibody (Life Technologies, #A-11029) for 1 hour at RT, washed thrice, and then mounted on glass slides with ProLong Gold reagent containing DAPI. Confocal fluorescence images were collected using a 63× oil-immersion objective (Leica SP5 Inverted 2-Photon FLIM Confocal). Fluorescence intensities from five cells in two independent images were quantified using custom Matlab (Mathworks) software.
We knocked down cMet protein levels with siRNAs and then evaluated the binding of QQT*-Cy5.5 and TLQ*-Cy5.5 to the surface of si-cMet-transfected HT29 cells to validate specific peptide binding. We used siRNA1 (SASI_Hs01_00133002, Sigma) for HT29, siRNA2 (SASI_WI_00000001, Sigma) for S114, and MISSION® siRNA #1 Universal Negative Control (SIC001, Sigma) for a negative control. We transfected cells with Lipofectamine 2000 (11668027, Invitrogen) per manufacturer instructions. Knockdown of cMet was confirmed by Western blot (FIG. 18). The cells were incubated with 5 μM peptide for 5 min at RT (i.e., room temperature), and then fixed and mounted on glass slides with ProLong Gold reagent containing DAPI, as previous described. […] Confocal fluorescence images were collected using a 63× oil-immersion objective (Leica SP5 Inverted 2-Photon FLIM Confocal).

cMet [8] = target: T3, cMet; experiment: Confocal microscopy of binding to HT29 (cMet+) versus SW480 (cMet−) cells; type: cell-based
Protocol: as §3

[9] = confocal microscopy, 5 μM peptide

T1 sequence (P08581 25-1390): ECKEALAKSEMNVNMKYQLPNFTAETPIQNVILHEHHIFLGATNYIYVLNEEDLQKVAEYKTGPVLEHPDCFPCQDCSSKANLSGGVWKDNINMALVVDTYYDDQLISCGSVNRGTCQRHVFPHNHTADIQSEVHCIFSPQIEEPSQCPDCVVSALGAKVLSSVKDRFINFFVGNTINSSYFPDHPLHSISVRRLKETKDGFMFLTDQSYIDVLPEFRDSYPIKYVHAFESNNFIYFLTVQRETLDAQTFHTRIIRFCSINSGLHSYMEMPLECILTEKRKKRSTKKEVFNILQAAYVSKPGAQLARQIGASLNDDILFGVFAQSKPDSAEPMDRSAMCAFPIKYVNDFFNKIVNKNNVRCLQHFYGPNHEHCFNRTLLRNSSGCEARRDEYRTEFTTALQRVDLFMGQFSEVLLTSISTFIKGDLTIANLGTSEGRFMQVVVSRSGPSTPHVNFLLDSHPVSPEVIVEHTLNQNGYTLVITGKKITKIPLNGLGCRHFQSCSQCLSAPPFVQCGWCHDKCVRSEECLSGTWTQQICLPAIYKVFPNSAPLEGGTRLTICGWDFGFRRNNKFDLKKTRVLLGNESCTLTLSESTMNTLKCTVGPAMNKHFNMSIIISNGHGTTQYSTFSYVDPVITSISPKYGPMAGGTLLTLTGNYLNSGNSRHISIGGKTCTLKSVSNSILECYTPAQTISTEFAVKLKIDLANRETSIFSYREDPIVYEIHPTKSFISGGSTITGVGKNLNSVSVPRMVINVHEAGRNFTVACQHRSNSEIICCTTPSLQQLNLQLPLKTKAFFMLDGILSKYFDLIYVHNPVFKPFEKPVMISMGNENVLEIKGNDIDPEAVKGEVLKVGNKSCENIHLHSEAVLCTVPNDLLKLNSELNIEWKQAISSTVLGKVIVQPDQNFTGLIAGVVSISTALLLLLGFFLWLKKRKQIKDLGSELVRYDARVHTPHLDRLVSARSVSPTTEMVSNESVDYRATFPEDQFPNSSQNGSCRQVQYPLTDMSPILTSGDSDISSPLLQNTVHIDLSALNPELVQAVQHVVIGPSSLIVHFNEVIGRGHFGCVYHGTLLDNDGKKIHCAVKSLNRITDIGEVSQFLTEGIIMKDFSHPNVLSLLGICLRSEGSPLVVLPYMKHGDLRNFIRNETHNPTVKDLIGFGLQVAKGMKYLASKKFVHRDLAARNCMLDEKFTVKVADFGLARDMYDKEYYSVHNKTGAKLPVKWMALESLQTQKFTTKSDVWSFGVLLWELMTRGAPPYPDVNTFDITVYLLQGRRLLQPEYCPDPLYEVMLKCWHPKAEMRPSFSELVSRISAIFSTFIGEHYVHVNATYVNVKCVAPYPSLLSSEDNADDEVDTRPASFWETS
T3 sequence (P08581 25-1390): as above
T2 sequence (P16056 25-931 limits assumed): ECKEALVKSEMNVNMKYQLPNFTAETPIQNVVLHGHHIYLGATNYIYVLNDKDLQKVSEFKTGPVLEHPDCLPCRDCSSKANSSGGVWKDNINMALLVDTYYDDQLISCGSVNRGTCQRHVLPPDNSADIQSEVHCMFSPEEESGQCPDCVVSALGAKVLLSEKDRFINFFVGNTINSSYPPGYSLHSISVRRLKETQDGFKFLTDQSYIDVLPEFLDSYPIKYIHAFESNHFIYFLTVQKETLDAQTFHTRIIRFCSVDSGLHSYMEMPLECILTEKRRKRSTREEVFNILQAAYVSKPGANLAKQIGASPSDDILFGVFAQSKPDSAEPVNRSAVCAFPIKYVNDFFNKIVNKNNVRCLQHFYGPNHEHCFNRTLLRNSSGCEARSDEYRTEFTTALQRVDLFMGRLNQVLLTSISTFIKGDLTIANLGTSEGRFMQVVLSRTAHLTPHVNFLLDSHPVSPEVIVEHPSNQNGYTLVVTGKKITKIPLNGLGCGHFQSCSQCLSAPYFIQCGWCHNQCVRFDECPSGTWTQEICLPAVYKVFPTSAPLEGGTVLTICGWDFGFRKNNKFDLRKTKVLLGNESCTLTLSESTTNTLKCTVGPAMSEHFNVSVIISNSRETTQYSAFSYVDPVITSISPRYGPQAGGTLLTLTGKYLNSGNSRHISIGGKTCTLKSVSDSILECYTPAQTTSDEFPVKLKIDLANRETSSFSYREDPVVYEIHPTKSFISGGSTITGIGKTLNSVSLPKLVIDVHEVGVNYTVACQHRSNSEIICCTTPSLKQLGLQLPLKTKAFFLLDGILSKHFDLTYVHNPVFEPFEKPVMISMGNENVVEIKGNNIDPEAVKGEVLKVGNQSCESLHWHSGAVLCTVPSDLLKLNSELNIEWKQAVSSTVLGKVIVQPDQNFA

Substance	change of QQT*-Cy5.5 fluorescence intensity on addition of unlabeled peptide (cMet (HT29 cells) [1])	binding to mouse cMet-ECD, Western blot band (mouse cMet-ECD)	phosphorylation of cMet and downstream AKT and ERK1/2 [2]	change of binding to HT29 cells with addition of HGF (cMet (HT29 cells) [3])	NIR fluorescence image of flat lesion [4]	NIR fluorescence image of polyp [4]	fluorescence signal from human SSA organoid in vivo [5]	fluorescence signal from human adenoma organoid in vivo [5]	fluorescence signal from human normal organoid in vivo [5]	binding to surface of S114 cells (cMet+) (cMet [6])	signal / binding to NIH3T3 cells (cMet−) (cMet [6])	intensity reduction with knockdown of cMet (cMet [7]; HT29 siCL versus sicMet) [fold]	binding to surface of control HT29 cells (cMet [7]; HT29 transfected with siCL non-targeting siRNA, confocal microscopy, 5 μM peptide)	fluorescence intensity / binding with HT29 knockdown cells (cMet [7]; HT29 transfected with sicMet-targeting siRNA, confocal microscopy)	mean intensity HT29 versus SW480 cells (cMet [8]) [fold change]	binding to surface of HT29 cells (cMet+) (cMet [8]; [9])	signal / binding to SW480 cells (cMet−) (cMet [8]; [9])
QQTNWSL [QQT*]	decrease significantly; also recorded: significant decrease	strong band	no change in phosphorylation	no competition	–	–	–	–	–	–	–	–	–	–	–	–	–
TLQ*-Cy5.5: scrambled control sequence TLQWNQS (SEQ ID NO:3) labeled with Cy5.5 via GGGSK linker (TLQWNQSGGGS-{K(Cy5.5)-NH2})	–	–	–	–	little signal; also recorded: minimal signal	minimal signal	minimal signal; also recorded: little signal	little signal; also recorded: minimal signal	little signal; also recorded: minimal signal	minimal binding	little binding	0.96	minimal binding	little signal; also recorded: little binding	0.85	minimal binding	little binding
TLQWNQS (Artificial Seuqence) [TLQ*]	no significant change	–	–	–	–	–	–	–	–	–	–	–	–	–	–	–	–
